This note sets out measurements from the supplement of paper PMC10126150.

± gives the standard deviation of the averaged measurements.

In this data set the test system is ATP. The data set can be described thus: switch fluorescence ratio, 500 uM ATP over buffer (Cy3 cluster intensity, sum of 5 cycles each) (fold (ratio)); higher = stronger signal-on switching upon ATP binding; sequences stand for … in TCGTCGGCAGCGTCAGATGTGTATAAGAGACAGTTTTTTTTTTTTTTTTTTTTTTTTT…TC. As to conditions: aptamer strand: ATP DNA aptamer (quencher-CACCTGGGGGAGTATTGCGGAGGAAGG + anchor), 100 nM annealed; ATP concentration: 500 uM. In outline:
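Per cluster, summed Cy3 intensity from the target cycles was divided by that from the buffer cycles to give the fluorescence ratio, then averaged per switch-domain sequence. Clusters outside 100-1000 RFU were excluded. The Cy3-labelled switching-strand clusters, on a modified Illumina MiSeq flow-cell, were annealed to 100 nM quencher-labelled ATP aptamer and imaged in selection buffer, then after 15 min with 500 uM ATP at 22 °C, for five cycles with NaOH stripping and re-annealing between them.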
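Also: ATP exposure 15 min at 22 °C before imaging.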

As for GGTCATATAG, the switch fluorescence ratio was 1.032 ± 0.0012. Take GATTCGTCGG: the switch fluorescence ratio worked out at 1.01 ± 0.021. For the sequence TTACTTTGAA, the switch fluorescence ratio came out at 1.01 ± 0.029.

Regarding TTCGTTTGTC, the switch fluorescence ratio came out at 1 ± 0.02.

For the sequence TGCGGGTTTT, the switch fluorescence ratio worked out at 1.02 ± 0.016. Consider ATGTATAGGG, for which the switch fluorescence ratio came out at 1 ± 0.0019. As for GGAATCAAAC, the switch fluorescence ratio was found to be 0.996 ± 0.0094. Regarding AGTACAGGCG, the switch fluorescence ratio was 1.024 ± 0.0097. ATAATTCGTA: the switch fluorescence ratio is 0.96 ± 0.024. Regarding TAACGGTTG, the switch fluorescence ratio was found to be 0.98 ± 0.017.

Regarding CGTTTGTTCG, the switch fluorescence ratio turned out to be 1.03 ± 0.071. GGTTAATGTT: the switch fluorescence ratio came out at 0.998 ± 0.026. With TGGCGCACAA, the switch fluorescence ratio came to 1.07 ± 0.013. As for CAATGGGGCT, the switch fluorescence ratio amounted to 1.02 ± 0.038. As to GCTTGTCGGT, the switch fluorescence ratio was 1.022 ± 0.0096. As to GGGTTTGGGC, the switch fluorescence ratio is 1.01 ± 0.024. ATGCTAATTT: the switch fluorescence ratio came to 0.9666 ± 0.0015. For TAAAAAAGAG, the switch fluorescence ratio was determined as 0.98 ± 0.03. As for TCATGCGGGC, the figure is 1.02 ± 0.038; as for GATCTAGAGG, 0.994 ± 0.019. For TTGATAGATG, the switch fluorescence ratio is 0.975 ± 0.028. Take AGTGCGGGTC: the switch fluorescence ratio is 1.02 ± 0.012. With ACGGCAAAGG, the switch fluorescence ratio was found to be 1.155 ± 0.0063. Turning to GGGATCGGTG, the switch fluorescence ratio was 0.995 ± 0.016.

Take CGCTTTACCG: the switch fluorescence ratio was found to be 1 ± 0.051. Consider GGCGCTTGGG, for which the switch fluorescence ratio was 0.986 ± 0.022. With GATCTCAGAG, the switch fluorescence ratio was 0.967 ± 0.014.

Regarding TCGGGGTTCT, the switch fluorescence ratio came to 1.01 ± 0.0064. Regarding GTCGATGGGG, the switch fluorescence ratio was determined as 0.969 ± 0.014.

In the case of ACAAGGGCGG, the switch fluorescence ratio came out at 1.01 ± 0.015. As to TGTTTTATTT, the switch fluorescence ratio worked out at 0.984 ± 0.018. Consider TCCGGATATA, for which the switch fluorescence ratio amounted to 1.065 ± 0.004.

Consider ATGGGGGTGG, for which the switch fluorescence ratio came out at 0.99 ± 0.0087. ATTTCTTTTG: the switch fluorescence ratio came to 1.02 ± 0.056. Consider AGTCGATTTT, for which the switch fluorescence ratio came out at 0.978 ± 0.012. Take TTCTCGTGGC: the switch fluorescence ratio was determined as 0.96 ± 0.029. As to TCGAACTCTT, the switch fluorescence ratio was 1.03 ± 0.021. CCATGGGTAG: the switch fluorescence ratio came to 0.974 ± 0.056. Regarding TATTCAGAAA, the switch fluorescence ratio worked out at 1.02 ± 0.054. Take CTCATAGGGG: the switch fluorescence ratio is 1.07 ± 0.024.

Consider TAAGGGTTG, for which the switch fluorescence ratio was found to be 0.985 ± 0.058. As for AAATTTAGCA, the figure is 0.99 ± 0.052; as for TGGGTTCTGT, 0.974 ± 0.0099; as for TTGGTGAGGG, 0.978 ± 0.022. TTTGATTTTT: the switch fluorescence ratio worked out at 0.984 ± 0.024.

For CTCTGGACTA, the switch fluorescence ratio turned out to be 1.11 ± 0.017. As for CGTGGGATTG, the switch fluorescence ratio came out at 1.012 ± 0.004. Turning to TTTCTCGATG, the switch fluorescence ratio is 1.011 ± 0.0072. On to TTATGTCAGC, for which the switch fluorescence ratio was 1.01 ± 0.023. Regarding GGGCCAGCTT, the switch fluorescence ratio came to 0.988 ± 0.016. The result for ACCTTTGGGC reads 0.996 ± 0.039; that for TTTCCTTGTT, 1.09 ± 0.057. As to ACAGTGAAAT, the switch fluorescence ratio came to 1.02 ± 0.039. The result for GGGGGGCTTT reads 0.986 ± 0.022; that for ATAGGAACGC, 0.995 ± 0.026. The result for GAAGCCTTGG reads 1.009 ± 0.004; that for GAGGAGGATA, 0.953 ± 0.024.

In the case of CAGGGGTCGT, the switch fluorescence ratio stood at 1.03 ± 0.038. Take AATCTTCTGT: the switch fluorescence ratio was found to be 0.982 ± 0.04. In the case of AGTGTCACGA, the switch fluorescence ratio was found to be 1.01 ± 0.015. As to ATAGATAGGT, the switch fluorescence ratio stood at 0.99 ± 0.034. Turning to GGACAAAAAC, the switch fluorescence ratio is 1.02 ± 0.013. As to AATGTGTATG, the switch fluorescence ratio was found to be 0.991 ± 0.033. Consider TAAAATAGTG, for which the switch fluorescence ratio is 0.997 ± 0.047. As for AGGCCTTCAG, the figure is 0.9915 ± 0.0083.

On to TCAATGTGGC, for which the switch fluorescence ratio was 1.04 ± 0.036.

As to CTCTTAGCTA, the switch fluorescence ratio came out at 1.17 ± 0.019. Consider GCGCGCACAC, for which the switch fluorescence ratio stood at 1.05 ± 0.019.

Take AGGTTTAGAC: the switch fluorescence ratio was 1.01 ± 0.021. Regarding GGGGGAGTTT, the switch fluorescence ratio turned out to be 1.01 ± 0.011.

As for CGATTTAGCG, the switch fluorescence ratio turned out to be 0.9773 ± 0.009. In the case of TGTTTCATGC, the switch fluorescence ratio stood at 1.07 ± 0.16. On to AGGGTAAGGT, for which the switch fluorescence ratio stood at 1.04 ± 0.082. For ACTCAATTAG, the switch fluorescence ratio was 1.025 ± 0.01.

In the case of GAGTTTGGTA, the switch fluorescence ratio is 0.96 ± 0.027. AGAGACTATT: the switch fluorescence ratio was 1.01 ± 0.0095. Consider TTGGGGGCAG, for which the switch fluorescence ratio was 1.01 ± 0.018. As to GGCCTCCGGT, the switch fluorescence ratio amounted to 1.09 ± 0.018.

Regarding GTTTAGGGGG, the switch fluorescence ratio amounted to 0.994 ± 0.018. Take TCGCCTGTTT: the switch fluorescence ratio was 1.003 ± 0.0036. In the case of CAAGGGGTT, the switch fluorescence ratio came out at 1.02 ± 0.068. For the sequence TCACCGACTA, the switch fluorescence ratio was 1.1952 ± 0.00033. As to AGGTAGGTTC, the switch fluorescence ratio worked out at 0.995 ± 0.019.

Regarding TGATTGTTAG, the switch fluorescence ratio is 0.988 ± 0.023.

For GCCCGCAAGG, the switch fluorescence ratio stood at 1.42 ± 0.015. Take TGCTAATTGA: the switch fluorescence ratio was found to be 1.01 ± 0.037.

With AAGGGGATTC, the switch fluorescence ratio was 1.07 ± 0.012. Turning to TGTACTGGGC, the switch fluorescence ratio was found to be 1.06 ± 0.049.

GGCTGGCCAT: the switch fluorescence ratio came to 1.01 ± 0.025. As for CAGGGTGATA, the figure is 1.06 ± 0.071. As for TTTAAAAACC, the switch fluorescence ratio turned out to be 1.01 ± 0.034. As for GCGTCTTTGG, the figure is 0.988 ± 0.026; as for TGATTTATTG, 0.985 ± 0.03.

ATCTCAGGGC: the switch fluorescence ratio came to 0.979 ± 0.014.

With GGGGAAGTCT, the switch fluorescence ratio worked out at 0.984 ± 0.093. As to TTTGCTTCCG, the switch fluorescence ratio amounted to 1.1 ± 0.084. As to AATGGTGCGC, the switch fluorescence ratio is 0.984 ± 0.017. For the sequence GTTACTTGAG, the switch fluorescence ratio was determined as 0.9985 ± 0.005. Take GTCAGAGGGG: the switch fluorescence ratio stood at 0.979 ± 0.028. Consider GCCGTTAACG, for which the switch fluorescence ratio stood at 0.969 ± 0.028. On to GCTCATTGGC, for which the switch fluorescence ratio was found to be 0.992 ± 0.027. For the sequence TTAAAGCGGA, the switch fluorescence ratio came out at 1.01 ± 0.021.

Turning to GTTTAAGCGG, the switch fluorescence ratio was found to be 0.969 ± 0.034. As for CATGGGTTAT, the switch fluorescence ratio amounted to 0.981 ± 0.05. CAGTCTTTTA: the switch fluorescence ratio came out at 0.957 ± 0.035. As for AGGGATATAT, the switch fluorescence ratio stood at 0.98 ± 0.011. As for TTCGAGGAAT, the figure is 1.08 ± 0.099; as for TTGCTAATAT, 1.038 ± 0.0093; as for AGGGAGGTGT, 0.997 ± 0.036. The result for CGTTTGGAAT reads 1.03 ± 0.051. On to TATTATACCT, for which the switch fluorescence ratio is 1.29 ± 0.053.
